Data published in US20140155581A1 (AstraZeneca / MedImmune, published 2014).

Biological target: T1, IGF1R (IGF1 receptor), antigen coated on the ELISA plate (UniProt P08069 31-932, limits assumed)
T1 construct: Construct not described; It may be the same histidine-tagged reagent as m8
Assay: ELISA, antigen coated at 2 µg/mL, antibody serially diluted, anti-kappa or anti-lambda HRP detection (FIG. 10)
Experimental: The absorbance at 450 nm was measured using a microtiter plate reader.

T1 sequence (P08069 31-932 limits assumed): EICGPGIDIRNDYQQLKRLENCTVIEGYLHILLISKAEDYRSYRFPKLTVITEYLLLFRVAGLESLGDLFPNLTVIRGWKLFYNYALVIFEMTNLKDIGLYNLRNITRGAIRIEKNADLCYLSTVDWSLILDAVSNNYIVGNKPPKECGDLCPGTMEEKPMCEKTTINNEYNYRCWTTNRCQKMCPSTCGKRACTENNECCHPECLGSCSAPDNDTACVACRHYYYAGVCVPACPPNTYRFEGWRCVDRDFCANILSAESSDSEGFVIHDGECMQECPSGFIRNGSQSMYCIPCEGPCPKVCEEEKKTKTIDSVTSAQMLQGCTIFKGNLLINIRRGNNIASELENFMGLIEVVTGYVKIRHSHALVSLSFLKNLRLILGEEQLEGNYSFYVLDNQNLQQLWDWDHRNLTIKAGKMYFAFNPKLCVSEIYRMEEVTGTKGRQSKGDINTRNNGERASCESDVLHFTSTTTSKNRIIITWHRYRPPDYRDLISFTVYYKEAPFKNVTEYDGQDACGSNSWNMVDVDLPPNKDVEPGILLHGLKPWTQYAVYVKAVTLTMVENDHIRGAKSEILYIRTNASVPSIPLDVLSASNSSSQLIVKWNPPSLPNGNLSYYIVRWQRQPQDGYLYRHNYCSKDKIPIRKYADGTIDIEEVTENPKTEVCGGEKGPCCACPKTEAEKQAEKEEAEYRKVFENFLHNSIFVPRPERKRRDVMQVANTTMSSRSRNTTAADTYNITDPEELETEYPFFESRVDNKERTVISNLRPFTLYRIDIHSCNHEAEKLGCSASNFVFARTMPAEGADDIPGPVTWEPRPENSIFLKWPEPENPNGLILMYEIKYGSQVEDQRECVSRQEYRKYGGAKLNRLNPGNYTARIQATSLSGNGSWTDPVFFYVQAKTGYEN

- binding result: no binding
B1: anti-EGFR conventional antibody (monospecific bivalent, kappa light chain; parental arm of iMab-EI) (antibody, V domains shown)
VH: QVQLQESGPGLVKPSETLSLTCTVSGGSVSSGDYYWTWIRQSPGKGLEWIGHIYYSGNTNYNPSLKSRLTISIDTSKTQFSLKLSSVTAADTAIYYCVRDRVTGAFDIWGQGTMVTVSS
VL: DIQMTQSPSSLSASVGDRVTITCQASQDISNYLNWYQQKPGKAPKLLIYDASNLETGVPSRFSGSGSGTDFTFTISSLQPEDIATYFCQHFDHLPLAFGGGTKVEIK
notes: Conventional IgG with kappa light chain; constant regions not specified; also called anti-EGFR antibody; parental arm antibody
